B1: Actin filament-associated protein 1 (Gallus gallus (Chicken)), Q90738 (parent)
chain: MEELIVELRLFLELLDHEYLTSTVREKKAVITNILLRIQSSKGFEIKEHVQKPEVANSLPAPPQMPLPEIPQQWLPPDNGPPPLPTSSLPEGYYEEAVPVSPGKAPEYITSNYDSDAMSSSYESYDEEEEDGKGKKMRHQWPSEEASMDLVKDAKICAFLLRKKRFGQWTKLLCVIKENKLLCYKSSKDQQPQMELLLNDCSITYIPKDSKKKKHELKISHQGADALVLAVQSKEQAEQWLKVIKDVCSNCTGTVDSDGPLSSSPVHKTELEKKLSSERPSSDGEGAVENGITTVCNGKEQVKRKKSSKTEAKGTVTKVTGKKITKIIGLGKKKPSTDEQTSSAEEDVPTCGYLNVLSNNRWRERWCRVKDNKLIFHKDRTDLKTHIVSIPLRGCEVIPGLDSKHPLTFRLLRNGQEVAVLEASSSEDMGRWIGMLLAETGSSTDPGALHYDYIDVEMTASVIQAAKQTFCFMNRRVISTNPYRGSTANGYACPSGMALHYDDVPCINGSFKGKKPPATANGITGKVRTLNSQPKKPESVSCVKRTASNAEQYKYGKNRVEAVAKRLQSKEEELLKRKEALRNRLAQLRKERKDLRAAIEVNAGRKTQVILEDKLKKLEEECKTKEAERVNLELELTEVKESLKKALAGGITLGLAIEPKSGTSSPQSPIFKHRTLENSPISSCDTSDTECSIPVNSAAALKRPPSSNNSPCRGHVLRKAKEWEMKNGT

Variants of: B1
Settings: with src_chick SRC

| Variant | effect of a mutation on the interaction |
| --- | --- |
| P71A | decreasing interaction |
